For this experiment, the target named is SARS-CoV-2 spike S2 (SARS-CoV-2, UniProt P0DTC2 686-1213). The experiment can be described thus: ELISA.

B1: m31A7 monoclonal antibody (chimeric IgG1) (antibody, V domains shown)
VH: EVQLQQSGPEMVKPGASVKISCKTSGYTFTEYTIYWVKQSHGKSLEWLGGINPNIGDTTYNQKFKGKATLTVDTSSSTAYMELRSLTSEDSAVYYCAREVYNYSFAYWGQGTLVTVSA
VL: DIVMSQSPSSLAVSVGEKVTMSCKSSQSLLYSSNQKNYLAWYQQKLGQTPKLLIYWASSRESGVPDRFTGSGSGTDFTLTISSVRAEDLAVYYCQQYYRYPLTFGVGTKLELKR
notes: also called m31A7 mAb; m31A7 IgG
On to B1, for which the binding result is “no binding”.
